Holding throughout (experiment): ITC; 200-400 μM 53BP1 Tudor domain (wt or mutant) injected into 200 μl of 22-44 μM TIRR or Nudt16 (wt or mutant); 25 °C; 20 mM Tris-HCl pH 7.5, 150 mM NaCl; single-site binding model
Background: ITC needs no label: the signal is the heat of the interaction.

Test [1] concerns the target TIRR H106W (not stated (human or mouse cDNA cloned)) (UniProt Q8VHN8).
In test [2] the target is TIRR H106K (not stated (human or mouse cDNA cloned)) (UniProt Q8VHN8).
Test [3] addresses TIRR H106R (not stated (human or mouse cDNA cloned)) (UniProt Q8VHN8).
The target of test [4] is TIRR L20A (not stated (human or mouse cDNA cloned)) (UniProt Q8VHN8).
For test [5], the target named is TIRR H106Δ (not stated (human or mouse cDNA cloned)) (UniProt Q8VHN8).
Test [6] deals with TIRR H106A (not stated (human or mouse cDNA cloned)) (UniProt Q8VHN8).
Test [7] has as its target TIRR H106Q (not stated (human or mouse cDNA cloned)) (UniProt Q8VHN8).
Test [8] deals with TIRR H106Y (not stated (human or mouse cDNA cloned)) (UniProt Q8VHN8).
Test [9] addresses TIRR K10E (not stated (human or mouse cDNA cloned)) (UniProt Q8VHN8).
Test [10] concerns the target Nudt16 ^H105 with R5, L7, V100 substituted by TIRR residues K10, I12, L101 (H. sapiens) (UniProt Q96DE0).
Test [11] deals with Nudt16 ^W105 (H. sapiens) (UniProt Q96DE0).
Test [12] addresses TIRR P105A (not stated (human or mouse cDNA cloned)) (UniProt Q8VHN8).
Test [13] has as its target TIRR I12A (not stated (human or mouse cDNA cloned)) (UniProt Q8VHN8).
The target in test [14] is Nudt16 ^H105 (H. sapiens) (UniProt Q96DE0).
Test [15] has as its target TIRR I12G (not stated (human or mouse cDNA cloned)) (UniProt Q8VHN8).

The term Kd denotes the free concentration of one partner at which half of the binding sites on the other are occupied at equilibrium, for simple one-to-one binding. Read a high Kd as weaker binding.

Sequence of 53BP1 tandem Tudor domain (1484-1603) (Q12888 other isoform, or with tags, fused parts or gaps): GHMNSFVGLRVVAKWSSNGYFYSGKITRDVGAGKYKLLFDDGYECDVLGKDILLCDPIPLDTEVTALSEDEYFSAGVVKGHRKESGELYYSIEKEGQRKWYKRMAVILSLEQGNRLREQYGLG

Take “53BP1 tandem Tudor domain (1484-1603) (from UniProt Q12888 1484-1603) (domain or fragment)”: the equilibrium dissociation constant (Kd) in [1] turned out to be 500 nM; in test [2], 6.8 µM; in test [3] it was 1900 nM; in [4], 25.5 µM; in [5], 17.8 µM; in [6], 3.9 µM. Moreover, the Kd in test [7] is 5.1 µM; in test [8] it was 1400 nM; in test [9], 20.4 µM; in test [10], 1000 nM; in [11] it was 3.6 µM; in test [12], 4.3 µM. The results for the dissociation constant Kd in test [13], in test [14] and in test [15] were 4.9 µM, 7.1 µM and 38.3 µM, respectively.

The values above are taken from publication PMC5974088.
